Measured values taken from US20260258115A1.

How the values were obtained:
[1] = molecular target: RSV postfusion F (postF, F deltaFP) (Respiratory syncytial virus); experiment: BLI, IgG on sensor, 100 nM antigen
[2] = molecular target: RSV prefusion F (preF, DS-Cav1) (Respiratory syncytial virus); experiment: BLI, IgG on sensor, 100 nM antigen

B1: ADI-41307 (antibody, V domains shown)
VH: QVQLVESGGGLVKPGGSLRLSCAASGFPLSPYALNWVRQAPGKGLEWVSSITSSSAYIYYADSVKGRFTVSRDNPTNSLYLQMNSLRAEDTAVYYCARTIPQHYYDNNGDYYNYGMDVWGQGTTVTVSS
VL: DIVLTQSPATLSVSPGQRITLSCRASQTVRSNLAWYQQKPGQPPRLLIYGASTRATGVPARFTGSGSGTEFTLTITSLQSDDFAVYYCHQYNDRPLTFGPGTKVEIK
With B1 as the binder, how does the Kd [1] read?
Its Kd is 0.83 nM.

And the Kd [2]?
The Kd was 2.99 nM.

B2: ADI-41313 (antibody, V domains shown)
VH: EVQLVESGAEVKKPGASVKVSCKASGYTFNNYDISWVRQAPGQGLEWMGWISTYNGNTNYAQKFQGRATMTTDTSTTTAYMELRSLRSDDSAIYYCARVYCGGDCHNPFFLYFDLWGRGTLVTVSS
VL: SYVLTQPLSVSVALGQTARITCGGNNIGSKSVHWYQQKPGQAPLLVIYRDNNRPSGIPERFSGSTSGNTATLTISRAQAGDEADYSCQVWDNSDWVFGGGTKLTVL
With B2 as the binder, how does the Kd [1] read?
Its Kd is 0.342 nM.

And the Kd [2]?
The Kd was 0.455 nM.

B3: ADI-41304 (antibody, V domains shown)
VH: EVQLVESGPGLVKPSQTLSLTCTVSGGSIRSHDYYWSWIRQPPGKGLEWIGYSYYSGSTYYNPSLKSRVIISLDTSKNQFSLNLTSVTAADTAMYYCARDRPHTSSWIPGWFDPWGQGTLVTVSS
VL: SYELTQPPSASGTPGQRVTISCSGSSSNIGSNTVSWYQQFPGKAPKLLIYSNNERPSGGPDRFSGSKSGTSASLAIGGLQSEDEANYYCAAWDDSLYAVVFGGGTKLTVL
With B3 as the binder, how does the Kd [1] read?
The Kd was 0.33 nM.

And the Kd [2]?
Its Kd is 0.338 nM.

B4: ADI-41311 (antibody, V domains shown)
VH: QVTLKQSGPALVKPTQTLTLTCTFSGFSLSTKRMGVSWIRQPPGKALEWLARIDWDDDKYYSTSLRTRLTISKDTSKNQVVLTMTDMDPVDTATYYCARIQPYTSGGYYSYYFDYWGQGTLVTVSS
VL: DIQVTQSPSSLSASIGDRVTITCRASQTIASYLNWYQQKPGKAPKLLIYIASSLQSGVPSRFSGSGSGTDFTLTISTLQPEDFATYYCQQSYGTPWTFGQGTKVEIK
With B4 as the binder, how does the Kd [1] read?
The Kd was 0.524 nM.

What about the Kd [2] of the same binder?
Its Kd is 0.754 nM.

B5: ADI-41303 (antibody, V domains shown)
VH: QVQLVQSGGGLVRPGGSLRVSCAASGFIFNNYALTWVRQAPGKGLEWVSAISGSGSSTYYADSVKGRFTISRENSNNRLYLQLSGLRAEDTAVYFCARVRGLVWFEGRIDPYPNVFDYWGQGTLVTVSS
VL: DIVLTQSPGTLSLSPGERATLSCRASQSVSNDYLAWYQQKPGQAPRLLIYDASSRAIGIPDRFSGSGSGTDFTLIISRLEPEDFAVYYCHHPGKFGQGTKVEIK
What does the source list for B5?
Kd [1]: 0.944 nM; Kd [2]: 2.96 nM

B6: ADI-41308 (antibody, V domains shown)
VH: EVQLVESGPGLVKPSQTLSLTCAISGDSVSSNSAAWNWIRQSPSRGLERMGRTYYRSKWYDDYAVSVKSRIIINPDTSKNQFSLQLNSVTPEDTAVYYCARGISTFGGVIYALEIWGQGTMVTVSS
VL: SYVLTQPASVSGSPGQSITISCTGLTSDVGGYNFVSWYQQHPGKAPKLIIYDVSHRPSGVSNRFSGSESGNTASLTISGLQAEDEAHYYCSSYTRTSIVVFGGGTKLTVL
For B6, which Kd [1] is on record?
The Kd was 0.519 nM.

What about the Kd [2] of the same binder?
The Kd was 4 nM.

B7: ADI-41309 (antibody, V domains shown)
VH: EVQLLESGPGLVKPSQTLSLTCTVSGGSISSGDYYWSWVRQPPGKGLEWIGNIYHSGSTYYKPSLKSRVSISLDTSKNQFSLKLSSVTAADTAIYYCARDGGENYVWGTFRFLDVWGQGTTVTVSS
VL: DIRLTQSPGTLSLSPGERATLSCRASQSVSSSYLAWYQQKPGQAPRLLIYGVSSRATGIPDRFSGSGSGTDFTLTINRLEPEDFALYHCQQYGSSPHTFGQGTKVEIK
With B7 as the binder, how does the Kd [1] read?
The Kd was 1.36 nM.

What about the Kd [2] of the same binder?
Its Kd is 4.34 nM.

B8: ADI-41306 (antibody, V domains shown)
VH: QVQLVESGPRLVKPSQTLSLTCTVSGGSIYRGDYDWNWIRQPPGKGLEWIGYISYTGNTHYNSSLKSRLSISADTSGTHFSLKLSSVTAADTAIYYCARDVGYGGNAAHYYYYAMDVWGQGTTVTVSS
VL: ETTLTQSPATLSLSPGERATLSCRASQSVGSSLAWYQQKVGQAPRLLIYDASSRVTGIPARFSGSGSGTDFTLTISSLEPGDFAVYYCQQRSNSLTFGGGTKVEIK
What does the source list for B8?
Kd [1]: 0.454 nM; Kd [2]: 0.462 nM
